Reference: US7582460B2 (Wacker Chemie AG, priority 2003, dated 2009)
Residue numbers refer to the chain shown, from its start. Names and notes keep the numbering of the source.

B1: serA: Escherichia coli wild-type 3-phosphoglycerate dehydrogenase (PGD, SEQ ID NO: 2) encoded by the serA gene (protein, listed as Escherichia coli)
chain: MAKVSLEKDKIKFLLVEGVHQKALESLRAAGYTNIEFHKGALDDEQLKESIRDAHFIGLRSRTHLTEDVINAAEKLVAIGCFCIGTNQVDLDAAAKRGIPVFNAPFSNTRSVAELVIGELLLLLRGVPEANAKAHRGVWNKLAAGSFEARGKKLGIIGYGHIGTQLGILAESLGMYVYFYDIENKLPLGNATQVQHLSDLLNMSDVVSLHVPENPSTKNMMGAKEISLMKPGSLLINASRGTVVDIPALCDALASKHLAGAAIDVFPTEPATNSDPFTSPLCEFDNVLLTPHIGGSTQEAQENIGLEVAGKLIKYSDNGSTLSAVNFPEVSLPLHGGRRLMHIHENRPGVLTALNKIFAEQGVNIAAQYLQTSAQMGYVVIDIEADEDVAEKALQAMKAIPGTIRARLLY
B2: serA416: E. coli PGD variant with replacement G349R (protein, UniProt P0A9T0 2-410, looked up, variant G349R)
D-3-phosphoglycerate …: AKVSLEKDKIKFLLVEGVHQKALESLRAAGYTNIEFHKGALDDEQLKESIRDAHFIGLRSRTHLTEDVINAAEKLVAIGCFCIGTNQVDLDAAAKRGIPVFNAPFSNTRSVAELVIGELLLLLRGVPEANAKAHRGVWNKLAAGSFEARGKKLGIIGYGHIGTQLGILAESLGMYVYFYDIENKLPLGNATQVQHLSDLLNMSDVVSLHVPENPSTKNMMGAKEISLMKPGSLLINASRGTVVDIPALCDALASKHLAGAAIDVFPTEPATNSDPFTSPLCEFDNVLLTPHIGGSTQEAQENIGLEVAGKLIKYSDNGSTLSAVNFPEVSLPLHGGRRLMHIHENRPRVLTALNKIFAEQGVNIAAQYLQTSAQMGYVVIDIEADEDVAEKALQAMKAIPGTIRARLLY
B3: serA11: E. coli PGD variant with replacement T372Y (protein, UniProt P0A9T0 2-410, looked up, variant T372Y)
D-3-phosphoglycerate …: B2 D-3-phosphoglycerate … with R348G, T371Y
B4: serA222: E. coli PGD variant with replacement T372V (protein, UniProt P0A9T0 2-410, looked up, variant T372V)
D-3-phosphoglycerate …: B2 D-3-phosphoglycerate … with R348G, T371V
B5: serA210: E. coli PGD variant with replacement T372W (protein, UniProt P0A9T0 2-410, looked up, variant T372W)
D-3-phosphoglycerate …: B2 D-3-phosphoglycerate … with R348G, T371W
B6: serA218: E. coli PGD variant with replacement T372N (protein, UniProt P0A9T0 2-410, looked up, variant T372N)
D-3-phosphoglycerate …: B2 D-3-phosphoglycerate … with R348G, T371N
B7: serA214: E. coli PGD variant with replacement T372A (protein, UniProt P0A9T0 2-410, looked up, variant T372A)
D-3-phosphoglycerate …: B2 D-3-phosphoglycerate … with R348G, T371A
B8: serA419: E. coli PGD variant with replacement G349F (protein, UniProt P0A9T0 2-410, looked up, variant G349F)
D-3-phosphoglycerate …: B2 D-3-phosphoglycerate … with R348F
B9: serA20: E. coli PGD variant with replacement T372I (protein, UniProt P0A9T0 2-410, looked up, variant T372I)
D-3-phosphoglycerate …: B2 D-3-phosphoglycerate … with R348G, T371I
B10: serA221: E. coli PGD variant with replacement T372Q (protein, UniProt P0A9T0 2-410, looked up, variant T372Q)
D-3-phosphoglycerate …: B2 D-3-phosphoglycerate … with R348G, T371Q
B11: serA421: E. coli PGD variant with replacement G349N (protein, UniProt P0A9T0 2-410, looked up, variant G349N)
D-3-phosphoglycerate …: B2 D-3-phosphoglycerate … with R348N
B12: serA420: E. coli PGD variant with replacement G349H (protein, UniProt P0A9T0 2-410, looked up, variant G349H)
D-3-phosphoglycerate …: B2 D-3-phosphoglycerate … with R348H
B13: serA226: E. coli PGD variant with replacement T372L (protein, UniProt P0A9T0 2-410, looked up, variant T372L)
D-3-phosphoglycerate …: B2 D-3-phosphoglycerate … with R348G, T371L
B14: serA40: E. coli PGD variant, mutation at codon 349 printed G349 (G349D per Table 3) (protein, UniProt P0A9T0 2-410, looked up, variant G349D)
D-3-phosphoglycerate …: B2 D-3-phosphoglycerate … with R348D
B15: serA231: E. coli PGD variant with replacement T372C (protein, UniProt P0A9T0 2-410, looked up, variant T372C)
D-3-phosphoglycerate …: B2 D-3-phosphoglycerate … with R348G, T371C
B16: serA45: E. coli PGD variant with replacement G349I (protein, UniProt P0A9T0 2-410, looked up, variant G349I)
D-3-phosphoglycerate …: B2 D-3-phosphoglycerate … with R348I
B17: serA418: E. coli PGD variant with replacement G349Y (protein, UniProt P0A9T0 2-410, looked up, variant G349Y)
D-3-phosphoglycerate …: B2 D-3-phosphoglycerate … with R348Y
B18: serA417: E. coli PGD variant with replacement G349W (protein, UniProt P0A9T0 2-410, looked up, variant G349W)
D-3-phosphoglycerate …: B2 D-3-phosphoglycerate … with R348W
B19: serA228: E. coli PGD variant with replacement T372M (protein, UniProt P0A9T0 2-410, looked up, variant T372M)
D-3-phosphoglycerate …: B2 D-3-phosphoglycerate … with R348G, T371M
B20: serA445: E. coli PGD variant with replacement G349C (protein, UniProt P0A9T0 2-410, looked up, variant G349C)
D-3-phosphoglycerate …: B2 D-3-phosphoglycerate … with R348C
B21: serA219: E. coli PGD variant with replacement T372G (protein, UniProt P0A9T0 2-410, looked up, variant T372G)
D-3-phosphoglycerate …: B2 D-3-phosphoglycerate … with R348G, T371G
B22: serA46: E. coli PGD variant with replacement G349M (protein, UniProt P0A9T0 2-410, looked up, variant G349M)
D-3-phosphoglycerate …: B2 D-3-phosphoglycerate … with R348M
B23: serA208: E. coli PGD variant with replacement T372H (protein, UniProt P0A9T0 2-410, looked up, variant T372H)
D-3-phosphoglycerate …: B2 D-3-phosphoglycerate … with R348G, T371H
B24: serA47: E. coli PGD variant with replacement G349E (protein, UniProt P0A9T0 2-410, looked up, variant G349E)
D-3-phosphoglycerate …: B2 D-3-phosphoglycerate … with R348E
B25: serA212: E. coli PGD variant with replacement T372F (protein, UniProt P0A9T0 2-410, looked up, variant T372F)
D-3-phosphoglycerate …: B2 D-3-phosphoglycerate … with R348G, T371F
B26: serA220: E. coli PGD variant with replacement T372S (protein, UniProt P0A9T0 2-410, looked up, variant T372S)
D-3-phosphoglycerate …: B2 D-3-phosphoglycerate … with R348G, T371S
B27: serA422: E. coli PGD variant with replacement G349Q (protein, UniProt P0A9T0 2-410, looked up, variant G349Q)
D-3-phosphoglycerate …: B2 D-3-phosphoglycerate … with R348Q

What follows are molecules tested against 3-phosphoglycerate dehydrogenase (PGD) (assay: Inhibition of PGD activity by L-serine, inhibitor constant Ki). Conditions: Ki = inhibitor concentration at which activity is 50% of activity without inhibitor.
Type: biochemical, Escherichia coli
Excerpt: (§1) For example, the PGD activity can be determined in analogy with the method described by McKitrick and Pizer (1980, J. Bacteriol. 141:235-245). The backward reaction is used to measure the enzyme activity in an assay sample which contains phosphohydroxypyruvate and NADH/H^+. The reaction is started by adding enzyme and is monitored in a spectrophotometer by way of the decrease in extinction at 340 nm which is caused by oxidation of the NADH/H^+.
(§2) At an optical density of 1.0, serA expression was in each case induced by adding 0.4 mM […] and the culture was incubated for a further 3 hours. The cells were subsequently harvested by centrifugation, washed and resuspended in 2 ml of buffer (100 mM K-phosphate, pH 7.0; 10 mM MgCl2; 1 mM dithiothreitol). The cells were disrupted using a French press (Spectronic Instruments, Inc. Rochester, N.Y., USA) at a pressure of 18 000 psi. The crude extracts were clarified by centrifugation at 30 000 g and PGD activity was determined using the McKitrick and Pizer test (1980, J. Bacteriol. 141:235-245).

Molecule | Ki [mM]
B1 | < 0.1
B2 | 15
B3 | 35
B4 | 40
B5 | 60
B6 | 100
B7 | 10
B8 | 10
B9 | 40
B10 | 100
B11 | 15
B12 | 10
B13 | 40
B14 | 25
B15 | 3
B16 | 5
B17 | 6
B18 | 8
B19 | 60
B20 | 5
B21 | 8
B22 | 1
B23 | 80
B24 | 20
B25 | 60
B26 | 1
B27 | 15

These molecules were tested on 3-phosphoglycerate dehydrogenase (PGD) (assay: PGD enzyme activity in crude extracts (McKitrick and Pizer test)). Conditions: crude extract of strain expressing plasmid-encoded serA allele; backward reaction, NADH oxidation at 340 nm.
Type: biochemical, Escherichia coli
Excerpt: as §1, §2

Molecule | Activity [units/mg]
B1 | 0.05
B2 | 0.04
B3 | 0.05
B4 | 0.05
B5 | 0.04
B6 | 0.05
B7 | 0.04
B8 | 0.05
B9 | 0.05
B10 | 0.05
B11 | 0.05
B12 | 0.05
B13 | 0.04
B14 | 0.05
B15 | 0.02
B16 | 0.05
B17 | 0.05
B18 | 0.02
B19 | 0.03
B20 | 0.04
B21 | 0.05
B22 | 0.05
B23 | 0.05
B24 | 0.05
B25 | 0.05
B26 | 0.05
B27 | 0.05
